Measured values reported in patent publication US7572764B2, “Uses of chemically-modified cholinesterases for detoxification of organophosporus compounds” (priority 2001, dated 2009).

Experiment: Clearance experiments in mice, pharmacokinetic profiles
Conditions: mice; for MRT: mean residence time, noncompartmental model
Procedure: The pharmacokinetic profiles of non-modified and various preparations of PEG-modified AChE were resolved. Clearance experiments in mice (3 to 6 ICR male mice per enzyme sample) and analysis of pharmacokinetic profiles were carried out as described essentially previously [Kronman, C., et al. (1992), Gene 121, 295-304]. The study was approved by the local ethical committee on animal experiments. Mice were injected with the various rHuAChE preparations (40 μg/mouse in 0.2 ml PBS). Residual AChE activity in blood samples was measured and all values were corrected for background hydrolytic activity in the blood (using samples withdrawn 1 hour before performing the experiment). AChE activity values in samples removed immediately after injection were assigned a value of 100% and used for calculation of residual activity. […] This model enables determination of the parameters A and B which represent the fractions of the material removed from the circulation in the first-fast and second-slow elimination phases respectively, and T1/2α and T1/2β which represent the circulatory half-life values of the enzyme in the fast and slow phases. The pharmacokinetic parameters MRT (mean residence time, which reflects the average length of time the administered molecules are retained in the organism) and CL (clearance, which represents the proportionality factor relating the rate of substance elimination to its plasma concentration (CL=dose/area under the concentration-time curve), were independently obtained by analyzing the clearance data according to a noncompartmental pharmacokinetic model using the WinNonlin computer program. The comparative results are set forth in Table 3 below.

Row | Molecule | pharmacokinetic behavior after modification by PEG versus non-modified enzyme | also measured
1 | partially desialylated BChE (protein, UniProt P06276 29-602, looked up, partially desialylated) Cholinesterase: EDDIIIATKNGKVRGMNLTVFGGTVTAFLGIPYAQPPLGRLRFKKPQSLTKWSDIWNATKYANSCCQNIDQSFPGFHGSEMWNPNTDLSEDCLYLNVWIPAPKPKNATVLIWIYGGGFQTGTSSLHVYDGKFLARVERVIVVSMNYRVGALGFLALPGNPEAPGNMGLFDQQLALQWVQKNIAAFGGNPKSVTLFGESAGAASVSLHLLSPGSHSLFTRAILQSGSFNAPWAVTSLYEARNRTLNLAKLTGCSRENETEIIKCLRNKDPQEILLNEAFVVPYGTPLSVNFGPTVDGDFLTDMPDILLELGQFKKTQILVGVNKDEGTAFLVYGAPGFSKDNNSIITRKEFQEGLKIFFPGVSEFGKESILFHYTDWVDDQRPENYREALGDVVGDYNFICPALEFTKKFSEWGNNAFFYYFEHRSSKLPWPEWMGVMHGYEIEFVFGLPLERRDNYTKAEEILSRSIVKRWANFAKYGNPNETQNNSTSWPVFKSTEQKYLTLNTESTRIMTKLRAQQCRFWTSFFPKVLEMTGNIDEAEWEWKAGFHRWNNYMMDWKNQFNDYTSKKESCVGL |  | MRT: 2.67 h
2 | non-treated serum-derived BChE (protein, UniProt P06276 29-602, looked up) Cholinesterase: EDDIIIATKNGKVRGMNLTVFGGTVTAFLGIPYAQPPLGRLRFKKPQSLTKWSDIWNATKYANSCCQNIDQSFPGFHGSEMWNPNTDLSEDCLYLNVWIPAPKPKNATVLIWIYGGGFQTGTSSLHVYDGKFLARVERVIVVSMNYRVGALGFLALPGNPEAPGNMGLFDQQLALQWVQKNIAAFGGNPKSVTLFGESAGAASVSLHLLSPGSHSLFTRAILQSGSFNAPWAVTSLYEARNRTLNLAKLTGCSRENETEIIKCLRNKDPQEILLNEAFVVPYGTPLSVNFGPTVDGDFLTDMPDILLELGQFKKTQILVGVNKDEGTAFLVYGAPGFSKDNNSIITRKEFQEGLKIFFPGVSEFGKESILFHYTDWVDDQRPENYREALGDVVGDYNFICPALEFTKKFSEWGNNAFFYYFEHRSSKLPWPEWMGVMHGYEIEFVFGLPLERRDNYTKAEEILSRSIVKRWANFAKYGNPNETQNNSTSWPVFKSTEQKYLTLNTESTRIMTKLRAQQCRFWTSFFPKVLEMTGNIDEAEWEWKAGFHRWNNYMMDWKNQFNDYTSKKESCVGL |  | circulatory residence time (in words): resides in the circulation for extended periods of time
3 | FBS-AChE (protein, UniProt P23795 31-613, looked up) Acetylcholinesterase: EGPEDPELLVMVRGGRLRGLRLMAPRGPVSAFLGIPFAEPPVGPRRFLPPEPKRPWPGVLNATAFQSVCYQYVDTLYPGFEGTEMWNPNRELSEDCLYLNVWTPYPRPSSPTPVLVWIYGGGFYSGASSLDVYDGRFLTQAEGTVLVSMNYRVGAFGFLALPGSREAPGNVGLLDQRLALQWVQENVAAFGGDPTSVTLFGESAGAASVGMHLLSPPSRGLFHRAVLQSGAPNGPWATVGVGEARRRATLLARLVGCPPGGAGGNDTELVACLRARPAQDLVDHEWRVLPQESVFRFSFVPVVDGDFLSDTPEALINAGDFHGLQVLVGVVKDEGSYFLVYGAPGFSKDNESLISRAQFLAGVRVGVPQASDLAAEAVVLHYTDWLHPEDPARLREALSDVVGDHNVVCPVAQLAGRLAAQGARVYAYIFEHRASTLSWPLWMGVPHGYEIEFIFGLPLEPSLNYTIEERTFAQRLMRYWANFARTGDPNDPRDPKAPQWPPYTAGAQQYVSLNLRPLEVRRGLRAQACAFWNRFLPKLLSATDTLDEAERQWKAEFHRWSSYMVHWKNQFDHYSKQDRCSDL |  | MRT: 22.33 h
4 | PEG modified FBS-AChE (conjugate, UniProt P23795 31-613, looked up, PEG) Acetylcholinesterase: EGPEDPELLVMVRGGRLRGLRLMAPRGPVSAFLGIPFAEPPVGPRRFLPPEPKRPWPGVLNATAFQSVCYQYVDTLYPGFEGTEMWNPNRELSEDCLYLNVWTPYPRPSSPTPVLVWIYGGGFYSGASSLDVYDGRFLTQAEGTVLVSMNYRVGAFGFLALPGSREAPGNVGLLDQRLALQWVQENVAAFGGDPTSVTLFGESAGAASVGMHLLSPPSRGLFHRAVLQSGAPNGPWATVGVGEARRRATLLARLVGCPPGGAGGNDTELVACLRARPAQDLVDHEWRVLPQESVFRFSFVPVVDGDFLSDTPEALINAGDFHGLQVLVGVVKDEGSYFLVYGAPGFSKDNESLISRAQFLAGVRVGVPQASDLAAEAVVLHYTDWLHPEDPARLREALSDVVGDHNVVCPVAQLAGRLAAQGARVYAYIFEHRASTLSWPLWMGVPHGYEIEFIFGLPLEPSLNYTIEERTFAQRLMRYWANFARTGDPNDPRDPKAPQWPPYTAGAQQYVSLNLRPLEVRRGLRAQACAFWNRFLPKLLSATDTLDEAERQWKAEFHRWSSYMVHWKNQFDHYSKQDRCSDL | significantly improved | 
5 | PEG-modified sialidase-treated AChE (conjugate, UniProt P22303 32-614, looked up, PEG; sialidase-treated) Acetylcholinesterase: EGREDAELLVTVRGGRLRGIRLKTPGGPVSAFLGIPFAEPPMGPRRFLPPEPKQPWSGVVDATTFQSVCYQYVDTLYPGFEGTEMWNPNRELSEDCLYLNVWTPYPRPTSPTPVLVWIYGGGFYSGASSLDVYDGRFLVQAERTVLVSMNYRVGAFGFLALPGSREAPGNVGLLDQRLALQWVQENVAAFGGDPTSVTLFGESAGAASVGMHLLSPPSRGLFHRAVLQSGAPNGPWATVGMGEARRRATQLAHLVGCPPGGTGGNDTELVACLRTRPAQVLVNHEWHVLPQESVFRFSFVPVVDGDFLSDTPEALINAGDFHGLQVLVGVVKDEGSYFLVYGAPGFSKDNESLISRAEFLAGVRVGVPQVSDLAAEAVVLHYTDWLHPEDPARLREALSDVVGDHNVVCPVAQLAGRLAAQGARVYAYVFEHRASTLSWPLWMGVPHGYEIEFIFGIPLDPSRNYTAEEKIFAQRLMRYWANFARTGDPNEPRDPKAPQWPPYTAGAQQYVSLDLRPLEVRRGLRAQACAFWNRFLPKLLSATDTLDEAERQWKAEFHRWSSYMVHWKNQFDHYSKQDRCSDL | significantly improved | 
6 | PEG-modified non-glycosylated AChE (conjugate, UniProt P22303 32-614, looked up, PEG; non-glycosylated) Acetylcholinesterase: EGREDAELLVTVRGGRLRGIRLKTPGGPVSAFLGIPFAEPPMGPRRFLPPEPKQPWSGVVDATTFQSVCYQYVDTLYPGFEGTEMWNPNRELSEDCLYLNVWTPYPRPTSPTPVLVWIYGGGFYSGASSLDVYDGRFLVQAERTVLVSMNYRVGAFGFLALPGSREAPGNVGLLDQRLALQWVQENVAAFGGDPTSVTLFGESAGAASVGMHLLSPPSRGLFHRAVLQSGAPNGPWATVGMGEARRRATQLAHLVGCPPGGTGGNDTELVACLRTRPAQVLVNHEWHVLPQESVFRFSFVPVVDGDFLSDTPEALINAGDFHGLQVLVGVVKDEGSYFLVYGAPGFSKDNESLISRAEFLAGVRVGVPQVSDLAAEAVVLHYTDWLHPEDPARLREALSDVVGDHNVVCPVAQLAGRLAAQGARVYAYVFEHRASTLSWPLWMGVPHGYEIEFIFGIPLDPSRNYTAEEKIFAQRLMRYWANFARTGDPNEPRDPKAPQWPPYTAGAQQYVSLDLRPLEVRRGLRAQACAFWNRFLPKLLSATDTLDEAERQWKAEFHRWSSYMVHWKNQFDHYSKQDRCSDL | significantly improved | 
7 | PEG-modified fully sialylated AChE (conjugate, UniProt P22303 32-614, looked up, PEG; fully sialylated) Acetylcholinesterase: EGREDAELLVTVRGGRLRGIRLKTPGGPVSAFLGIPFAEPPMGPRRFLPPEPKQPWSGVVDATTFQSVCYQYVDTLYPGFEGTEMWNPNRELSEDCLYLNVWTPYPRPTSPTPVLVWIYGGGFYSGASSLDVYDGRFLVQAERTVLVSMNYRVGAFGFLALPGSREAPGNVGLLDQRLALQWVQENVAAFGGDPTSVTLFGESAGAASVGMHLLSPPSRGLFHRAVLQSGAPNGPWATVGMGEARRRATQLAHLVGCPPGGTGGNDTELVACLRTRPAQVLVNHEWHVLPQESVFRFSFVPVVDGDFLSDTPEALINAGDFHGLQVLVGVVKDEGSYFLVYGAPGFSKDNESLISRAEFLAGVRVGVPQVSDLAAEAVVLHYTDWLHPEDPARLREALSDVVGDHNVVCPVAQLAGRLAAQGARVYAYVFEHRASTLSWPLWMGVPHGYEIEFIFGIPLDPSRNYTAEEKIFAQRLMRYWANFARTGDPNEPRDPKAPQWPPYTAGAQQYVSLDLRPLEVRRGLRAQACAFWNRFLPKLLSATDTLDEAERQWKAEFHRWSSYMVHWKNQFDHYSKQDRCSDL | significantly improved | 
8 | PEG-modified mono-glycosylated AChE (conjugate, UniProt P22303 32-614, looked up, PEG; mono-glycosylated) Acetylcholinesterase: EGREDAELLVTVRGGRLRGIRLKTPGGPVSAFLGIPFAEPPMGPRRFLPPEPKQPWSGVVDATTFQSVCYQYVDTLYPGFEGTEMWNPNRELSEDCLYLNVWTPYPRPTSPTPVLVWIYGGGFYSGASSLDVYDGRFLVQAERTVLVSMNYRVGAFGFLALPGSREAPGNVGLLDQRLALQWVQENVAAFGGDPTSVTLFGESAGAASVGMHLLSPPSRGLFHRAVLQSGAPNGPWATVGMGEARRRATQLAHLVGCPPGGTGGNDTELVACLRTRPAQVLVNHEWHVLPQESVFRFSFVPVVDGDFLSDTPEALINAGDFHGLQVLVGVVKDEGSYFLVYGAPGFSKDNESLISRAEFLAGVRVGVPQVSDLAAEAVVLHYTDWLHPEDPARLREALSDVVGDHNVVCPVAQLAGRLAAQGARVYAYVFEHRASTLSWPLWMGVPHGYEIEFIFGIPLDPSRNYTAEEKIFAQRLMRYWANFARTGDPNEPRDPKAPQWPPYTAGAQQYVSLDLRPLEVRRGLRAQACAFWNRFLPKLLSATDTLDEAERQWKAEFHRWSSYMVHWKNQFDHYSKQDRCSDL | significantly improved | 
